From patent publication US20260055369A1, “METHOD FOR GENERATING CELLS OF THE T CELL LINEAGE WITH ENGINEERING BROADLY REACTIVE HUMAN NOTCH LIGAND” (H. Lee Moffitt Cancer Center and Research Institute, Inc., priority 2022, published 2026)

Tested on: Notch1 (EGF6-13)
Assay: SPR determination of equilibrium dissociation constants
Format: binding, human
Conditions: for off-rate from fitted SPR sensograms: series DLL4.v1, DLL4.v2, Delta^MAX, FIG. 2C Notch1 EGF6-13; for binding affinity compared to WT DLL4: stated for all four human Notch receptors (Notch1-4)
Protocol: Equilibrium dissociation constants were determined by surface plasmon resonance using a Biacore T200 instrument (GE Healthcare). Approximately 100 resonance units (RU) of biotinylated Notch extracellular fragments (Notch1 (EGF6-13), Notch2 (EGF6-13), Notch3 (EGF5-12), Notch4 (7-12), and mouse Notch1 (EGF6-13)) were immobilized on individual flow cells at 5 μl/min using a streptavidin-coated sensor chip (Series S Sensor chip SA, GE Healthcare). Three-fold serial dilutions of recombinant DLL4 proteins (N-EGF5) starting at 50 μM (WT DLL4), 18 μM (DLL4.v2), and 6 μM (DLL4.v1 and Delta^MAX) were flowed over the chip at 25° C. in SPR buffer (20 mM HEPES pH 7.4, 150 mM NaCl, 1 mM calcium chloride, 0.1% BSA supplemented with 0.005% surfactant P20). Association (“on-rate”) and dissociation (“off-rate”) phases were performed at 10 μl/min for 120 seconds and 300 seconds, respectively. The sensor chip was regenerated after each injection with 30-second washes of 2.25M Magnesium Chloride containing 25% Ethylene Glycol at 50 μL/min. Data collection rate was performed at 10 Hz, and curves were reference-subtracted from a flow cell containing 100 RU of a negative control non-related protein (biotinylated mouse RNF43 PA domain). The maximum RU for each experiment was normalized to a value of 100% and plotted as a function of concentration using Prism 9 software (GraphPad). Steady-state binding and kinetic curves were fitted using the Biacore T200 evaluation software to a 1:1 Langmuir model to determine the KD values.

Chain of Notch1 (EGF6-13) (P46531 257-526 limits assumed): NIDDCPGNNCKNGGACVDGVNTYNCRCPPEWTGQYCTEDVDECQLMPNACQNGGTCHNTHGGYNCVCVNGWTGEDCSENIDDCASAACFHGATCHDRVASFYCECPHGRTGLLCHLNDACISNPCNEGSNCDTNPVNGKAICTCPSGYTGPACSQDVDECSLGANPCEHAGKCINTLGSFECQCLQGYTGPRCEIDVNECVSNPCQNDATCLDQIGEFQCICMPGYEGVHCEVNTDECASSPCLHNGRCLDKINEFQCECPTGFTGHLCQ

binding affinity compared to WT DLL4	Molecule	off-rate from fitted SPR sensograms
enhanced affinity	DLL4.v1: human DLL4 construct containing the five E12 mutations (Site 1+Site 2); sequence matches SEQ ID NO: 2 (protein) SSVFQLQLQEFINERGVLASGRPCEPGCRTFFRVCLKHFQAVVSPGPCTFGTVSTPVLGTNSFAVRDDSSGGGRNPLQLPLNFTWPGTFSLIIEAWHAPGDDLRPEALPPDALISKFAIQGSLAVGQNWLLDEQTSTLTRLRYSYRVICSDNYYGDNCSRLCKKRNDYFGHYVCQPDGNPSCLPGWTGEYCQQPICLSGCHEQNGYCSKPAECLCRPGWQGRLCNECIPHNGCRHGTCSTPWQCTCDEGWGGLFCDQDLNYCTHHSPCKNGATCSNSGQRSYTCTCRPGYTGVDCELELSECDSNPCRNGGSCKDQEDGYHCLCPPGYYGLHCEHSTLSCADSPCFNGGSCRERNQGANYACECPPNFTGSNCE	progressive decreases in off-rate
enhanced affinity	DLL4.v2: human DLL4 clone with five mutations N257P, T271L, F280Y, S301R, Q305P; matches SEQ ID NO: 5 (protein) SGVFQLQLQEFINERGVLASGRPCEPGCRTFFRVCLKHFQAVVSPGPCTFGTVSTPVLGTNSAVRDDSSGGGRNPLQLPFNFTWPGTFSLIIEAWHAPGDDLRPEALPPDALISKIAIQGSLAVGQNWLLDEQTSTLTRLRYSYRVICSDNYYGDNCSRLCKKRNDHFGHYVCQPDGNLSCLPGWTGEYCQQPICLSGCHEQNGYCSKPAECLCRPGWQGRLCNECIPHPGCRHGTCSTPWQCLCDEGWGGLYCDQDLNYCTHHSPCKNGATCRNSGPRSYTCTCRPGYTGVDCELELSECDSNPCRNGGSCKDQEDGYHCLCPPGYYGLHCEHSTLSCADSPCFNGGSCRERNQGANYACECPPNFTGSNCE	progressive decreases in off-rate
